In patent publication US20240287163A1 (Chugai, published 2024):

B1: recombinant human C1r2s2 tetramer (other)
chain 1: EPTMYGEILSPNYPQAYPSEVEKSWDIEVPEGYGIHLYFTHLDIELSENCAYDSVQIISGDTEEGRLCGQRSSNNPHSPIVEEFQVPYNKLQVIFKSDFSNEERFTGFAAYYVATDINECTDFVDVPCSHFCNNFIGGYFCSCPPEYFLHDDMKNCGVNCSGDVFTALIGEIASPNYPKPYPENSRCEYQIRLEKGFQVVVTLRREDFDVEAADSAGNCLDSLVFVAGDRQFGPYCGHGFPGPLNIETKSNALDIIFQTDLTGQKKGWKLRYHGDPMPCPKEDTPNSVWEPAKAKYVFRDVVQITCLDGFEVVEGRVGATSFYSTCQSNGKWSNSKLKCQPVDCGIPESIENGKVEDPESTLFGSVIRYTCEEPYYYMENGGGGEYHCAGNGSWVNEVLGPELPKCVPVCGVPREPFEEKQRIIGGSDADIKNFPWQVFFDNPWAGGALINEYWVLTAAHVVEGNREPTMYVGSTSVQTSRLAKSKMLTPEHVFIHPGWKLLEVPEGRTNFDNDIALVRLKDPVKMGPTVSPICLPGTSSDYNLMDGDLGLISGWGRTEKRDRAVRLKAARLPVAPLRKCKEVKVEKPTADAEAYVFTPNMICAGGEKGMDSCKGDSGGAFAVQDPNDKTKFYAAGLVSWGPQCGTYGLYTRVKNYVDWIMKTMQENSTPRED
chain 2: SIPIPQKLFGEVTSPLFPKPYPNNFETTTVITVPTGYRVKLVFQQFDLEPSEGCFYDYVKISADKKSLGRFCGQLGSPLGNPPGKKEFMSQGNKMLLTFHTDFSNEENGTIMFYKGFLAYYQAVDLDECASRSKLGEEDPQPQCQHLCHNYVGGYFCSCRPGYELQEDRHSCQAECSSELYTEASGYISSLEYPRSYPPDLRCNYSIRVERGLTLHLKFLEPFDIDDHQQVHCPYDQLQIYANGKNIGEFCGKQRPPDLDTSSNAVDLLFFTDESGDSRGWKLRYTTEIIKCPQPKTLDEFTIIQNLQPQYQFRDYFIATCKQGYQLIEGNQVLHSFTAVCQDDGTWHRAMPRCKIKDCGQPRNLPNGDFRYTTTMGVNTYKARIQYYCHEPYYKMQTRAGSRESEQGVYTCTAQGIWKNEQKGEKIPRCLPVCGKPVNPVEQRQQIIGGQKAKMGNFPWQVFTNIHGRGGGALLGDRWILTAAHTLYPKEHEAQSNASLDVFLGHTNVEELMKLGNHPIRRVSVHPDYRQDESYNFEGDIALLELENSVTLGPNLLPICLPDNDTFYDLGLMGYVSGFGVMEEKIAHDLRFVRLPVANPQACENWLRGKNRMDVFSQNMFCAGHPSLKQDACQGDAGGVFAVRDPNTDRWVATGIVSWGIGCSRGYGFYTKVLNYVDWIKKEMEEED
notes: C1s and C1r co-expressed in HEK293 and purified from the supernatant as tetramer; also called hC1r2s2

Experiments:
[1] = target: T1, native human C1q (CompTech) (human, UniProt P02745 23-245; P02746 28-253; P02747 29-245); assay: SPR (BIACORE T200, 37 C, pH 7.4), hC1r2s2 captured by immobilised IPN009VH2Vk3-SG1148, hC1q 100 nM then buffer, response normalised to C1r2s2 = 100 RU
T1 construct: the three subunits are from general knowledge; also called hC1q
Excerpt: As the amount of capture, 200 resonance unit (RU) was aimed. […] The sensor surface was regenerated every cycle, using 3 M MgCl₂ (prepared in-house). The sensorgrams were obtained using BIACORE® T200 evaluation software, version 2.0 (Cytiva). […] For comparison of these sensorgrams, binding response of C1r2s2 was normalized as 100 RU.

[2] = target: T2, recombinant cynomolgus C1r2s2 tetramer (cynomolgus monkey, limits assumed); assay: SPR (Biacore T200), 37 C; ratio of KD at pH 6.0 to KD at pH 7.4
T2 construct: also called cyC1r2s2; monkey C1r2s2
T2 chain 1: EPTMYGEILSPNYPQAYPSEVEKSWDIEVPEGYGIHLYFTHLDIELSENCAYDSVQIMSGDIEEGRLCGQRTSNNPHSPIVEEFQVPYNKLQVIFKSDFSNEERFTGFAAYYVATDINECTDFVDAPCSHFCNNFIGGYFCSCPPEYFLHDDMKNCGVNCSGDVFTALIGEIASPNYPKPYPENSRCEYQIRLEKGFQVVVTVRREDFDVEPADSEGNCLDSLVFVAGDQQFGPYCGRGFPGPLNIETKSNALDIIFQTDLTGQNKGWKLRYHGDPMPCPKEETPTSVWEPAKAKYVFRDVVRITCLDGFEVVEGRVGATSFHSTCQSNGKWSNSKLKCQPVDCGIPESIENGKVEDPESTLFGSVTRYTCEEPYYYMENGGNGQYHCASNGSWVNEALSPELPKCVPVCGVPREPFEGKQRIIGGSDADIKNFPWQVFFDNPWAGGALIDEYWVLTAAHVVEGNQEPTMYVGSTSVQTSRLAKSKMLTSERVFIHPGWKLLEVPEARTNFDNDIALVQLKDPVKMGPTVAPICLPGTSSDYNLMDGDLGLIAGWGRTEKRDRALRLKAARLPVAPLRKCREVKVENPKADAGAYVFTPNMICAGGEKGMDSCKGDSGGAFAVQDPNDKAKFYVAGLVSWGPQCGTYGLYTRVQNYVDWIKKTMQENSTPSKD
T2 chain 2: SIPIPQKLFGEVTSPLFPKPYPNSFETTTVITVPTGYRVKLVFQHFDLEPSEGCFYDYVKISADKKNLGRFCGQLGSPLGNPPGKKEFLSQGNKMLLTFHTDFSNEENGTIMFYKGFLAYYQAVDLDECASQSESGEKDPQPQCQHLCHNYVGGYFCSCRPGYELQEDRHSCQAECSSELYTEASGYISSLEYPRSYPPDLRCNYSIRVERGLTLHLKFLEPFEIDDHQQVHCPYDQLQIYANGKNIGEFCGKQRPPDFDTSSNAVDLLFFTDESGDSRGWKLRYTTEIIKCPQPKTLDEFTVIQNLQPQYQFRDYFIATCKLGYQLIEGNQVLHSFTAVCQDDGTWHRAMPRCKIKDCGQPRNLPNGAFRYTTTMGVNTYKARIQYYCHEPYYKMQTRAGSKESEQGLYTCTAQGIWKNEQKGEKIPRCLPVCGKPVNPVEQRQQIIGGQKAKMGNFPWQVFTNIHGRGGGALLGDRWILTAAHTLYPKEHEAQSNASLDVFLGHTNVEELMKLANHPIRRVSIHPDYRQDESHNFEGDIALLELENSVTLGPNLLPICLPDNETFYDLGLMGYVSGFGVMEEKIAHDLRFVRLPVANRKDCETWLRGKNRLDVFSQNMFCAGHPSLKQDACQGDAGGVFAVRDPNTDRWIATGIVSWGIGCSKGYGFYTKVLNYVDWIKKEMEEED
Protocol: (§1) The binding property of each sample at pH7.4 and pH6.0 was determined at 37° C. using BIACORE® T200 instrument (Cytiva). […] 20 mM ACES, 150 mM NaCl, 1.2 mM CaCl₂, 1 mg/mL BSA (not containing IgG), 1 mg/mL CMD, 0.05% Tween® 20, 0.005 w/v % NaN₃, pH7.4 or pH6.0 buffer was used as the running buffer. […] The antibody solution was added thereto at 30 μL/min for 120 seconds, the running buffer was then added at 30 μL/min for 180 seconds, and the dissociation constant (KD) of each antibody for hC1r2s2 and cyC1r2s2 was calculated. […] The sensor surface was regenerated every cycle, using 3 M MgCl2 (prepared in-house). The KD value was calculated using BIACORE® T200 evaluation software version 2.0 (Cytiva). The binding strengths under each pH condition were compared by dividing the KD value at pH6.0 with the KD value at pH7.4.

[3] = target: B1; assay: as above
Protocol: as §1

[4] = target: T2, recombinant cynomolgus C1r2s2 tetramer; assay: SPR (Biacore T200), 37 C, pH 6.0; cyC1r2s2 captured by IPN009, antibody as analyte
Protocol: as §1

[5] = target: B1; assay: SPR (Biacore T200), 37 C, pH 7.4; hC1r2s2 captured by IPN009, antibody as analyte
Protocol: as §1

[6] = target: T2, recombinant cynomolgus C1r2s2 tetramer; assay: SPR (Biacore T200), 37 C, pH 7.4; cyC1r2s2 captured by IPN009, antibody as analyte
Protocol: as §1

[7] = target: B1; assay: SPR (Biacore T200), 37 C, pH 6.0; hC1r2s2 captured by IPN009, antibody as analyte
Protocol: as §1

T1 sequence (P02745 23-245 limits assumed, chain 1 of 3): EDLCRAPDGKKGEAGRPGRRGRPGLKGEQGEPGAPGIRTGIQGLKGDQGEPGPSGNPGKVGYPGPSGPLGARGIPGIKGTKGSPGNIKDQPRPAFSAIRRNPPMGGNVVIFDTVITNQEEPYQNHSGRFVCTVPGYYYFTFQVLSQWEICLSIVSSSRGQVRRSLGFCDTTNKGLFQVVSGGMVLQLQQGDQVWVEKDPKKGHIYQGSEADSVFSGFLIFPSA
T1 sequence (P02746 28-253 limits assumed, chain 2 of 3): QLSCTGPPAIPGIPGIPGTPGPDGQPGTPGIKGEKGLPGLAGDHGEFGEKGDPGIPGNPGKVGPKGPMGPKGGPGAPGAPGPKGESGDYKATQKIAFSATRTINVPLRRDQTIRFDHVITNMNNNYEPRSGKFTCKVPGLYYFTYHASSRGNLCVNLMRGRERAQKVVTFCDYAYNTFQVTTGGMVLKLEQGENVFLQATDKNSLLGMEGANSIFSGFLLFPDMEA
T1 sequence (P02747 29-245 limits assumed, chain 3 of 3): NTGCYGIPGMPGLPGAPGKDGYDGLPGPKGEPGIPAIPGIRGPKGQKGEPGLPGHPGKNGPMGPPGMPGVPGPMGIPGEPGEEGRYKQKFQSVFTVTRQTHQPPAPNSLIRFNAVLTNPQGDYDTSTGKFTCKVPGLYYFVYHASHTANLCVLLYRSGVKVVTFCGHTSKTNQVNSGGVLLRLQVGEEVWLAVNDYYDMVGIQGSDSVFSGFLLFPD

Binder	binding result [1]	KD (pH 6.0)/KD (pH 7.4) [2]	KD (pH 6.0)/KD (pH 7.4) [3]	Kd [4] [nM]	Kd [5] [nM]	Kd [6] [nM]	Kd [7] [nM]
B1	binds						
COS0637pHv23-G1A3FcgSil+LowpI (antibody, V domains shown, VH 28, VL 51, CH 45, CL 23) VH: QVQLVESGGGVVQPGRSLRLSCAASGFTFSAYAMNWIRQPPGKGLEWIGLIYGTGHEFYASWAEERVTISVDTSKNQFSLKLSSVTAADTAVYYCARGRSKNYNSDFHIWGQGTLVTVSS VL: DIQMTQSPSSLSASVGDRVTITCQAHEILHDKKNLAWYQQKPGQPPKLLIYSASILESGVPSRFSGSGSGTDFTLTISSLQPEDFATYYCHGEFSHGSADLNHFGQGTKVEIKR		139	110	46.3	0.249	0.334	27.4
COS0637pHv25-G1A3FcgSil+LowpI (antibody, V domains shown, VH 32, VL 55, CH 45, CL 23) VH: QVQLVESGGGVVQPGRSLRLSCAASGFTFSAYAMNWIRQPPGKGLEWIGLMYGSGHEFYASWAEERVTISVDTSKNQFSLKLSSVTAADTAVYYCARGRSKNYNSDFHLWGQGTLVTVSS VL: DIQMTQSPSSLSASVGDRVTITCQAHEILHDKKNLAWYQQKPGQPPKLLIYGASQRESGVPSRFSGSGSGTDFTLTISSLQPEDFATYYCHGEFPHSSADLNHFGQGTKVEIKR		276	108	67.1	0.198	0.243	21.3
